Results published in article PMC5796856 (Molecular microbiology, 2018).
Positions count from the first letter of the chain named. In names and notes the source's numbering stands.

Key:
FtsA [1] = molecular target: T1, FtsA (Escherichia coli, UniProt P0ABH0); assay: mant fluorescence titration; type: binding
T1 sequence (P0ABH0 1-420): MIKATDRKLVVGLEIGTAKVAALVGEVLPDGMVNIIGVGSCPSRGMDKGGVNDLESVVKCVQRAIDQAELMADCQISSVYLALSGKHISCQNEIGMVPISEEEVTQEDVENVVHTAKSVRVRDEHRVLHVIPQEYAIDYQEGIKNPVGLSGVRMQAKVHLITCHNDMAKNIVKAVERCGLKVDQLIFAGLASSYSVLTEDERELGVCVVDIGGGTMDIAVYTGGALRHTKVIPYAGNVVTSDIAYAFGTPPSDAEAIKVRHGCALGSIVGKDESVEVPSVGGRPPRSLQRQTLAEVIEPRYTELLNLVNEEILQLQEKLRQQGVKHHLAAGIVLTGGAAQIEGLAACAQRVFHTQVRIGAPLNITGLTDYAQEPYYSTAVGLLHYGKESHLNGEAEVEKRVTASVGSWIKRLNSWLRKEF

FtsA [2] = molecular target: FtsA (Escherichia coli, UniProt P0ABH0, K86A); assay: mant fluorescence titration; type: binding
FtsA (E. coli) = FtsA (E. coli) (UniProt P0ABH0); assay: co-sedimentation
SEC = molecular target: the molecule itself; assay: SEC
FtsA [3] = molecular target: T2, FtsA (E. coli, UniProt P0ABH0 1-420); assay: confocal fluorescence microscopy of recruitment to vesicles in vitro
T2 sequence (looked up): T1 sequence (P0ABH0 1-420)

[4] = molecular target: the molecule itself; assay: sedimentation of polymers by ultracentrifugation

Chain of FtsA (Escherichia coli, UniProt P0ABH0, K86A) (P0ABH0 whole entry K86A): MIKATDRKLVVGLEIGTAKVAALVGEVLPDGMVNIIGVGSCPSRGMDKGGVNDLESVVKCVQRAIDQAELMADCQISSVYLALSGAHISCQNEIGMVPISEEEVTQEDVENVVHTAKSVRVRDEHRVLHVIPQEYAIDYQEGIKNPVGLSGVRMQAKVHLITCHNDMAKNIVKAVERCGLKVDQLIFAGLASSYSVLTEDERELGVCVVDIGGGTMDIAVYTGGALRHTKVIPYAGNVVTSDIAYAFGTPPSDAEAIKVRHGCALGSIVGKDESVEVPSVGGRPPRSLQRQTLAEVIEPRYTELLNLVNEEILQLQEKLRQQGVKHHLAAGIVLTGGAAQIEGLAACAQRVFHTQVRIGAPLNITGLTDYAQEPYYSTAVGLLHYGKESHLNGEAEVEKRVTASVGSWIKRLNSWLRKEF

CNc1ccccc1C(=O)O[C@H]1[C@@H](O)[C@H](n2cnc3c(N)ncnc32)O[C@@H]1CO[P@@](=O)(O)O[P@](=O)(O)OP(=O)(O)O [mant-ATP]
Kd (FtsA [1]): 26.2 ± 3 µM | Kd (FtsA [2]): 27.9 ± 0.5 µM

FtsZ(R379E) (from UniProt P0A9A6 1-383) (natural protein)
percent of FtsZ in the pellet (FtsA (E. coli)): 35.6%

B1: FtsA(ΔMTS) (domain or fragment, E. coli, UniProt P0ABH0 1-404, looked up)
chain: MIKATDRKLVVGLEIGTAKVAALVGEVLPDGMVNIIGVGSCPSRGMDKGGVNDLESVVKCVQRAIDQAELMADCQISSVYLALSGKHISCQNEIGMVPISEEEVTQEDVENVVHTAKSVRVRDEHRVLHVIPQEYAIDYQEGIKNPVGLSGVRMQAKVHLITCHNDMAKNIVKAVERCGLKVDQLIFAGLASSYSVLTEDERELGVCVVDIGGGTMDIAVYTGGALRHTKVIPYAGNVVTSDIAYAFGTPPSDAEAIKVRHGCALGSIVGKDESVEVPSVGGRPPRSLQRQTLAEVIEPRYTELLNLVNEEILQLQEKLRQQGVKHHLAAGIVLTGGAAQIEGLAACAQRVFHTQVRIGAPLNITGLTDYAQEPYYSTAVGLLHYGKESHLNGEAEVEKRVTAS
stoichiometry N (SEC): 2

B2: FL-FtsZ (natural protein, E. coli, UniProt P0A9A6 1-383, looked up)
chain: MFEPMELTNDAVIKVIGVGGGGGNAVEHMVRERIEGVEFFAVNTDAQALRKTAVGQTIQIGSGITKGLGAGANPEVGRNAADEDRDALRAALEGADMVFIAAGMGGGTGTGAAPVVAEVAKDLGILTVAVVTKPFNFEGKKRMAFAEQGITELSKHVDSLITIPNDKLLKVLGRGISLLDAFGAANDVLKGAVQGIAELITRPGLMNVDFADVRTVMSEMGYAMMGSGVASGEDRAEEAAEMAISSPLLEDIDLSGARGVLVNITAGFDLRLDEFETVGNTIRAFASDNATVVIGTSLDPDMNDELRVTVVATGIGMDKRPEITLVTNKQVQQPVMDRYQQHGMAPLTQEQKPVAKVVNDNAPQTAKEPDYLDIPAFLRKQAD
modifications: Alexa Fluor 488 label
binding result (FtsA [3]): binds

B3: FtsZ (natural protein, E. coli, UniProt P0A9A6 1-383, looked up)
chain: B2 chain
binding result [4]: binds

B4: FtsZ(R379E) (natural protein, E. coli, UniProt P0A9A6 1-383, looked up)
chain: B2 chain with R379E
binding result [4]: binds
